Assay results published in patent US20250243286A1 (SIXPEAKS BIO, published 2025).
Positions count from the first letter of the chain named. Names may count otherwise.

T1: human ActRIIB (human, UniProt Q13705 19-137, limits assumed)
T1 construct: antigen in MSD-SET; also called ACVR2B; ActR2B
T1 sequence: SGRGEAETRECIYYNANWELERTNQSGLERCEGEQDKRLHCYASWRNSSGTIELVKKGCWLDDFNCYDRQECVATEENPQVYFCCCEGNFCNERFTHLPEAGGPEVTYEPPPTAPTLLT

B1: Ochsamaulsalat Fab (Fab, V domains shown)
VH: QVQLVQSGAEVKKPGASVKVSCKASGYTFTSSYINWVRQAPGQGLEWMGTINAVSGSTSYAQKFQGRVTMTRDTSISTAYMELSRLRSDDTAVYYCARGGWFDYWGQGTLVTVSS
VL: QSALTQPASVSGSPGQSITISCTGTSSDVGSRNYVNWYQQHPGKAPKLMIYGVSKRESGVSNRFSGSKSGNTASLTISGLQAEDEADYYCGTFAGGDYYGVFGGGTKLTVL
notes: Fab
B2: Antibody Hutzelbrot (antibody, V domains shown)
VH: B1 VH
VL: B1 VL with R32K, E57Q
notes: full-length IgG
B3: Antibody Dürrfloischeggla (antibody, V domains shown)
VH: B1 VH with T74V
VL: B1 VL with R32Y, Y34V, Y51S, D97K
notes: full-length IgG
B4: Antibody Ochsauga (antibody, V domains shown)
VH: B1 VH with Y104V
VL: B1 VL with V29I, R32Y, D97S
notes: full-length IgG
B5: Antibody Hasaschlegel (antibody, V domains shown)
VH: B1 VH
VL: B1 VL with R32Y, N33D, Y51H, D97S
notes: full-length IgG
B6: Antibody Floischbrühsupp (antibody, V domains shown)
VH: B1 VH
VL: B1 VL with R32F, Y51K, D97A
notes: full-length IgG
B7: Antibody Pfitzauf (antibody, V domains shown)
VH: B1 VH with A53P
VL: B1 VL with R32G, D97K
notes: full-length IgG
B8: Antibody Springerle (antibody, V domains shown)
VH: B1 VH with A53P
VL: B1 VL with R32Y, D97S, Y99R
notes: full-length IgG
B9: Antibody Wiebela (antibody, V domains shown)
VH: B1 VH with A16S, T28K, M70I, R72A, I76T, R85S, D89E
VL: B1 VL with A8R, I18V, R32K, S61P, N62D, D97K
B10: Antibody Oierspätzla (antibody, V domains shown)
VH: B1 VH with A16S, A53P, M70I, R72A, I76T, R85S, D89E
VL: B1 VL with A8R, I18V, R32Y, S61P, N62D, D97A
B11: Antibody Peitscheschdegga (antibody, V domains shown)
VH: B1 VH with A16S, T28K, M70I, R72A, I76T, R85S, D89E
VL: B1 VL with A8R, I18V, R32K, Y51H, S61P, N62D, D97K
B12: Antibody Metzelsupp (antibody, V domains shown)
VH: B1 VH with A16S, M70I, R72A, I76T, R85S, D89E
VL: B1 VL with A8R, I18V, R32F, Y51R, S61P, N62D, D97A
B13: Antibody Mauldascha (antibody, V domains shown)
VH: B1 VH with A16S, M70I, R72A, T74E, I76T, R85S, D89E
VL: B1 VL with A8R, I18V, R32Y, S61P, N62D, D97K
B14: Antibody Hegemark (antibody, V domains shown)
VH: B1 VH with A16S, T28K, M70I, R72A, I76T, R85S, D89E
VL: B1 VL with A8R, I18V, R32K, E57H, S61P, N62D, D97K
B15: Antibody Zibebe (antibody, V domains shown)
VH: B1 VH with A16S, T28K, M70I, R72A, T74E, I76T, R85S, D89E
VL: B1 VL with A8R, I18V, R32Y, S61P, N62D, D97K
B16: Antibody Nonnafürzla (antibody, V domains shown)
VH: B1 VH with A16S, M70I, R72A, I76T, R85S, D89E
VL: B1 VL with A8R, I18V, R32Y, E57D, S61P, N62D, D97K
B17: Antibody Schnitzbrot (antibody, V domains shown)
VH: B1 VH with A16S, T28K, M70I, R72A, I76T, R85S, D89E
VL: B1 VL with A8R, I18V, R32Y, E57D, S61P, N62D, D97K
B18: Antibody Seela (antibody, V domains shown)
VH: B1 VH with A16S, T28K, M70I, R72A, I76T, R85S, D89E
VL: B1 VL with A8R, I18V, R32K, L48H, S61P, N62D, D97K
B19: Antibody Krapfa (antibody, V domains shown)
VH: B1 VH with A16S, Y27H, T28K, M70I, R72A, I76T, R85S, D89E
VL: B1 VL with A8R, I18V, R32K, S61P, N62D, D97K
B20: Antibody Rauchfloisch (antibody, V domains shown)
VH: B1 VH with A16S, M70I, R72A, I76T, R85S, D89E
VL: B1 VL with A8R, I18V, S61P, N62D
B21: Ofaschlupfer, Human IgG1-PALALA-YTE (antibody, V domains shown)
VH: B1 VH with A16S, M70I, R72A, I76T, R85S, D89E
VL: B1 VL with A8R, I18V, R32K, S61P, N62D, D97K
notes: human IgG1 with PA-LALA (L234A/L235A/P329A) and YTE (M252Y/S254T/T256E), EU numbering
B22: Ofaschlupfer, Mouse IgG2a-PALALA (antibody, V domains shown)
VH: B1 VH with A16S, M70I, R72A, I76T, R85S, D89E
VL: B1 VL with A8R, I18V, R32K, S61P, N62D, D97K
notes: mouse IgG2a constant region with PALALA
B23: Ofaschlupfer, Human IgG1-PALALA (antibody, V domains shown)
VH: B1 VH with A16S, M70I, R72A, I76T, R85S, D89E
VL: B1 VL with A8R, I18V, R32K, S61P, N62D, D97K
notes: human IgG1 with PA-LALA (L234A/L235A/P329A), EU numbering
B24: Soidawürstle, Human IgG1-PALALA-YTE (antibody, V domains shown)
VH: B1 VH with K12R, A16S, A53P, M70I, R72A, I76T, R85S, D89E
VL: B1 VL with A8R, I18V, R32Y, Y34R, S61P, N62D, D97R
notes: as for B21
B25: Schwardamaga, Mouse IgG2a-PALALA (antibody, V domains shown)
VH: B1 VH with A16S, M70I, R72A, I76T, R85S, D89E
VL: B1 VL with A8R, I18V, R32A, L48P, K55R, E57P, S61P, N62D, D97K
notes: as for B22
B26: Schwardamaga, Human IgG1-PALALA-YTE (antibody, V domains shown)
VH: B1 VH with A16S, M70I, R72A, I76T, R85S, D89E
VL: B1 VL with A8R, I18V, R32A, L48P, K55R, E57P, S61P, N62D, D97K
notes: as for B21
B27: Schwardamaga, Human IgG1-PALALA (antibody, V domains shown)
VH: B1 VH with A16S, M70I, R72A, I76T, R85S, D89E
VL: B1 VL with A8R, I18V, R32A, L48P, K55R, E57P, S61P, N62D, D97K
notes: as for B23
B28: Soidawürstle, Mouse IgG2a-PALALA (antibody, V domains shown)
VH: B1 VH with K12R, A16S, A53P, M70I, R72A, I76T, R85S, D89E
VL: B1 VL with A8R, I18V, R32Y, Y34R, S61P, N62D, D97R
notes: as for B22
B29: Soidawürstle, Human IgG1-PALALA (antibody, V domains shown)
VH: B1 VH with K12R, A16S, A53P, M70I, R72A, I76T, R85S, D89E
VL: B1 VL with A8R, I18V, R32Y, Y34R, S61P, N62D, D97R
notes: as for B23

biological target: T2, ActRIIA and ActRIIB (on TGFB/SMAD SBE Reporter HEK293 cells) (human); test: cell-based or functional assay

IC50, Activin SMAD RGA	IC50, Myostatin SMAD RGA	Binder
1.5 nM	2.32 nM	B1

biological target: T1, human ActRIIB; test: MSD-SET

Kd	Binder
0.01 nM	B2
0.009 nM	B3
0.006 nM	B4
0.013 nM	B5
0.01 nM	B6
0.008 nM	B7

biological target: T3, human ActRIIA (human, UniProt P27037 20-135, limits assumed); test: MSD-SET
T3 construct: antigen in MSD-SET; also called ACVR2A; ActR2A
T3 sequence (P27037 20-135 limits assumed): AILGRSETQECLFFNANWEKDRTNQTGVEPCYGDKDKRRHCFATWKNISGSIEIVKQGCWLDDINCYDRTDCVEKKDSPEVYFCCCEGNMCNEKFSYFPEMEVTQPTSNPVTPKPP

Kd	Binder
0.021 nM	B2
0.033 nM	B3
0.027 nM	B8
0.016 nM	B4
0.018 nM	B5
0.023 nM	B6
0.052 nM	B7

biological target: T3, human ActRIIA; test: MSD-SET; remark: another data set of the same source

Fold Difference to bimagrumab	Kd	Binder
7.3 fold	0.027 nM	B8

biological target: T1, human ActRIIB; test: MSD-SET; remark: another data set of the same source

Kd	Binder
0.062 nM	B1

biological target: T3, human ActRIIA; test: MSD-SET; remark: another data set of the same source

Kd	Binder
0.055 nM	B1

biological target: T2, ActRIIA and ActRIIB (on TGFB/SMAD SBE …); test: cell-based or functional assay; remark: another data set of the same source

IC50, Activin SMAD RGA	IC50, Myostatin SMAD RGA	IC90, Activin SMAD RGA	IC90, Myostatin SMAD RGA	Binder
0.253 nM	0.25 nM	3.96 nM	14.8 nM	B9
0.361 nM	0.96 nM	3.06 nM	16.8 nM	B10
0.299 nM	2.84 nM	4.92 nM	48.4 nM	B11
0.573 nM	0.713 nM	3.79 nM	7.72 nM	B12
1.83 nM	1.42 nM	6.72 nM	13.4 nM	B13
0.304 nM	0.516 nM	4.37 nM	23.4 nM	B14
0.542 nM	1.46 nM	7.83 nM	19 nM	B15
0.505 nM	1.32 nM	3.81 nM	27.3 nM	B16
0.312 nM	0.624 nM	2.52 nM	19.1 nM	B17
0.338 nM	0.473 nM	4.74 nM	18.2 nM	B18
	0.0497 nM		10400 nM	B19
0.668 nM	1.31 nM	5.11 nM	18.2 nM	B20

biological target: T1, human ActRIIB; test: MSD-SET; remark: another data set of the same source

Kd	Binder
0.003 nM	B21
0.004 nM	B22
0.003 nM	B23
0.005 nM	B24
0.016 nM	B25
0.013 nM	B26
0.011 nM	B27
0.003 nM	B28
0.006 nM	B29

biological target: T3, human ActRIIA; test: MSD-SET; remark: another data set of the same source

Kd	Binder
0.034 nM	B24
0.039 nM	B25
0.04 nM	B26
0.036 nM	B27
0.027 nM	B28
0.025 nM	B29

biological target: T2, ActRIIA and ActRIIB (on TGFB/SMAD SBE …); test: cell-based or functional assay; remark: another data set of the same source

IC50, Activin SMAD RGA	IC50, Myostatin SMAD RGA	IC90, Activin SMAD RGA	IC90, Myostatin SMAD RGA	IC50 [nM] (assay not given)	IC50 fold difference to bimagrumab (assay not given)	IC90 [nM] (assay not given)	IC90 fold difference to bimagrumab (assay not given)	Binder
0.422 nM	0.73 nM	3.62 nM	3.06 nM					B2
0.423 nM	0.679 nM	4.86 nM	6.09 nM					B3
0.094 nM		1.38 nM		0.0946 nM	5.46 fold	1.5 nM	5.4 fold	B8
0.238 nM	0.327 nM	3.15 nM	2.21 nM					B4
0.722 nM	0.977 nM	5.56 nM	6.59 nM					B5
0.324 nM	0.394 nM	4.69 nM	2.62 nM					B6
0.231 nM	0.0984 nM	3.03 nM	1.35 nM					B7
